Data as given in the Immune Epitope Database (IEDB).

Legend:
[1] = target: HLA-B*15:17; test: IEDB peptide-MHC binding, purified MHC/competitive/fluorescence; filed as Kd, often an IC50 or EC50 that approximates it; ≥ and ≤ were set here for values at or beyond the usual limits of such assays; details: source organism: Francisella tularensis subsp. tularensis FSC198
[2] = target: HLA-A*31:01; test: as above; details: source organism: Francisella tularensis subsp. tularensis FSC198
[3] = target: HLA-A*68:02; test: as above
[4] = target: HLA-A*26:03; test: as above
[5] = target: HLA-B*57:01; test: as above; details: source organism: Francisella tularensis subsp. tularensis FSC198
[6] = target: HLA-A*26:02; test: as above; details: source organism: Francisella tularensis subsp. tularensis FSC198
[7] = target: HLA-A*02:01; test: as above; details: source organism: Francisella tularensis subsp. tularensis FSC198
[8] = target: HLA-B*15:01; test: IEDB peptide-MHC binding, purified MHC/direct/fluorescence; filed as Kd, often an IC50 or EC50 that approximates it; ≥ and ≤ were set here for values at or beyond the usual limits of such assays
[9] = target: HLA-A*11:01; test: as above
[10] = target: HLA-B*08:01; test: as above
[11] = target: HLA-B*18:01; test: as above
[12] = target: HLA-B*08:02; test: as above
[13] = target: HLA-B*15:09; test: as above; details: source organism: Francisella tularensis subsp. tularensis FSC033
[14] = target: HLA-A*01:01; test: as above
[15] = target: HLA-A*24:03; test: as above; details: source organism: Francisella tularensis subsp. holarctica LVS
[16] = target: HLA-B*07:02; test: as above
[17] = target: HLA-B*58:01; test: as above
[18] = target: HLA-B*27:05; test: as above
[19] = target: HLA-A*26:01; test: as above
[20] = target: HLA-B*40:01; test: as above
[21] = target: HLA-B*46:01; test: as above
[22] = target: HLA-A*24:02; test: as above
[23] = target: HLA-B*44:02; test: as above
[24] = target: HLA-A*03:01; test: as above
[25] = target: HLA-A*02:01; test: as above
[26] = target: HLA-A*69:01; test: as above
[27] = target: HLA-A*31:01; test: as above
[28] = target: HLA-B*15:01; test: IEDB peptide-MHC binding, purified MHC/competitive/fluorescence; filed as Kd, often an IC50 or EC50 that approximates it; ≥ and ≤ were set here for values at or beyond the usual limits of such assays; details: source organism: Mycobacterium tuberculosis C
[29] = target: HLA-B*08:01; test: as above; details: source organism: Mycobacterium tuberculosis C
[30] = target: HLA-A*30:01; test: as above; details: source organism: Mycobacterium tuberculosis C
[31] = target: HLA-B*07:02; test: as above; details: source organism: Mycobacterium tuberculosis C
[32] = target: HLA-B*15:17; test: IEDB peptide-MHC binding, purified MHC/direct/fluorescence; filed as Kd, often an IC50 or EC50 that approximates it; ≥ and ≤ were set here for values at or beyond the usual limits of such assays; details: source organism: Mycobacterium tuberculosis
[33] = target: HLA-B*48:01; test: as above; details: source organism: Mycobacterium tuberculosis
[34] = target: HLA-B*57:01; test: as above; details: source organism: Mycobacterium tuberculosis
[35] = target: HLA-B*08:03; test: as above; details: source organism: Mycobacterium tuberculosis C
[36] = source organism: Francisella tularensis subsp. tularensis FSC198
[37] = source organism: Francisella tularensis subsp. holarctica LVS
[38] = source organism: Francisella tularensis subsp. tularensis FSC033
[39] = source organism: Influenza A virus (A/goose/Hong Kong/8/1976(H1N1))
[40] = source organism: Influenza A virus(A/swine/Shandong/fNY/2003(H9N2))
[41] = source organism: Influenza A virus (A/Puerto Rico/8/34/Mount Sinai(H1N1))
[42] = source organism: Shigella flexneri
[43] = source organism: Influenza A virus (A/chicken/Vietnam/5/2003(H5N1))
[44] = source organism: Mycobacterium tuberculosis C
[45] = source organism: Mycobacterium tuberculosis

IYTVIYYIF
Kd [1]: 0.439 µM
Kd [2]: ≥ 20 µM
Kd [3, 36]: 3.96 µM
Kd [4, 36]: ≥ 20 µM
Kd [5]: ≥ 20 µM
Kd [6]: 1.13 µM
Kd [7]: ≥ 20 µM
Kd [8, 37]: ≥ 20 µM
Kd [9, 37]: ≥ 20 µM
Kd [10, 38]: ≥ 20 µM
Kd [11, 38]: 8.93 µM
Kd [12, 38]: ≥ 20 µM
Kd [13]: ≥ 20 µM
Kd [14, 37]: ≥ 20 µM
Kd [15]: 0.27 µM
Kd [16, 37]: ≥ 20 µM
Kd [17, 38]: 0.15 µM

KTTYWWDGL
Kd [8, 39]: ≥ 20 µM
Kd [18, 39]: ≥ 20 µM
Kd [19, 40]: ≥ 20 µM
Kd [20, 41]: ≥ 5 µM
Kd [9, 39]: ≥ 20 µM
Kd [21, 39]: ≥ 20 µM
Kd [22, 39]: ≥ 20 µM
Kd [23, 39]: ≥ 20 µM
Kd [10, 39]: ≥ 20 µM
Kd [12, 40]: ≥ 20 µM
Kd [24, 39]: ≥ 20 µM
Kd [14, 39]: ≥ 20 µM
Kd [16, 39]: ≥ 20 µM
Kd [17, 39]: ≥ 5 µM
Kd [25, 39]: ≥ 20 µM
Kd [26, 39]: ≥ 20 µM

LSSIGIPAY
Kd [27, 42]: ≥ 20 µM
Kd [8, 42]: 0.304 µM
Kd [18, 42]: ≥ 20 µM
Kd [20, 42]: ≥ 20 µM
Kd [9, 42]: ≥ 20 µM
Kd [22, 42]: ≥ 20 µM
Kd [23, 42]: ≥ 20 µM
Kd [24, 42]: ≥ 20 µM
Kd [14, 42]: 0.366 µM
Kd [16, 42]: ≥ 20 µM
Kd [17, 42]: 0.178 µM
Kd [25, 42]: ≥ 20 µM
Kd [26, 42]: ≥ 20 µM

QTYDWTLNR
Kd [8, 43]: ≥ 20 µM
Kd [18, 43]: ≥ 20 µM
Kd [20, 43]: ≥ 20 µM
Kd [21, 43]: ≥ 20 µM
Kd [22, 43]: ≥ 20 µM
Kd [23, 43]: ≥ 20 µM
Kd [10, 43]: ≥ 20 µM
Kd [11, 43]: ≥ 20 µM
Kd ([12]; source organism: Influenza A virus(A/swine/Henan/3/2004(H9N2))): ≥ 20 µM
Kd [24, 41]: 0.376 µM
Kd [14, 43]: ≥ 20 µM
Kd [16, 43]: ≥ 20 µM
Kd [17, 43]: ≥ 20 µM
Kd [25, 43]: ≥ 20 µM

RYLNIYQLW
Kd ([22]; source organism: Cryptosporidium parvum Iowa II): 0.002 µM

TIHLATAPK
Kd [3, 44]: 0.76 µM
Kd [28]: ≥ 20 µM
Kd [4, 44]: ≥ 20 µM
Kd [29]: ≥ 20 µM
Kd [30]: 0.0002 µM
Kd [31]: ≥ 20 µM
Kd [32]: ≥ 20 µM
Kd [27, 45]: 0.653 µM
Kd [18, 45]: ≥ 20 µM
Kd [33]: ≥ 20 µM
Kd [19, 44]: ≥ 20 µM
Kd [20, 45]: ≥ 20 µM
Kd [9, 45]: 0.0087 µM
Kd [21, 45]: ≥ 20 µM
Kd [34]: ≥ 20 µM
Kd [11, 45]: ≥ 20 µM
Kd [12, 44]: ≥ 20 µM
Kd [35]: ≥ 20 µM
Kd [14, 45]: ≥ 20 µM
Kd [17, 45]: ≥ 20 µM
Kd [26, 45]: 2.33 µM
